The subject of this series is Escherichia coli TOP10. Description: shrunken log2 fold change of peptide-encoding DNA abundance (4.5 h post-induction vs induction); higher = less antimicrobial activity (less host growth inhibition). As to conditions: time post-induction: 4.5 h; library: site-saturation at positions 5, 18, 19, 20.
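Also: peptides expressed intracellularly from a pBAD plasmid library in pooled LB shake-flask culture, induced with 0.3% L-arabinose, DNA abundance read by NGS, three biological replicates, DESeq2 with apeglm shrinkage.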

On to RRIRSRPPRLPRPRPRPLSLPRP, for which the “shrunken log2 fold change” value stood at 0.0119.

Turning to RRIRLRPPRLPRPRPRPRLAPRP, the “shrunken log2 fold change” value is 0.624.

Turning to RRIRKRPPRLPRPRPRPVVLPRP, the “shrunken log2 fold change” value was -0.0253.

In the case of RRIRQRPPRLPRPRPRPNTCPRP, the “shrunken log2 fold change” value is -1.35.

Turning to RRIRVRPPRLPRPRPRPWNIPRP, the “shrunken log2 fold change” value is -0.582.

As for RRIRDRPPRLPRPRPRPENDPRP, the “shrunken log2 fold change” value stood at 0.41.

As to RRIRARPPRLPRPRPRPQTLPRP, the “shrunken log2 fold change” value turned out to be 0.0847.

Take RRIRCRPPRLPRPRPRPDVVPRP: the “shrunken log2 fold change” value is -0.00174.

RRIRTRPPRLPRPRPRPTERPRP: the “shrunken log2 fold change” value turned out to be 0.36.

Turning to RRIRERPPRLPRPRPRPPSNPRP, the “shrunken log2 fold change” value is -0.208.

On to RRIRYRPPRLPRPRPRPNKYPRP, for which the “shrunken log2 fold change” value is -0.908.

For RRIRFRPPRLPRPRPRPESRPRP, the “shrunken log2 fold change” value worked out at 0.146.

On to RRIRFRPPRLPRPRPRPMIEPRP, for which the “shrunken log2 fold change” value is 0.0675.

For RRIRLRPPRLPRPRPRPNMMPRP, the “shrunken log2 fold change” value is -0.762.

As for RRIRRRPPRLPRPRPRPRVRPRP, the “shrunken log2 fold change” value turned out to be 0.649.

Turning to RRIRSRPPRLPRPRPRPTCEPRP, the “shrunken log2 fold change” value worked out at 0.228.

Turning to RRIRQRPPRLPRPRPRPFYIPRP, the “shrunken log2 fold change” value is 0.0172.

As to RRIRTRPPRLPRPRPRPHVMPRP, the “shrunken log2 fold change” value was -0.0914.

Consider RRIRIRPPRLPRPRPRPFEFPRP, for which the “shrunken log2 fold change” value is -0.00107.

Regarding RRIRDRPPRLPRPRPRPQRNPRP, the “shrunken log2 fold change” value is -0.0378.

In the case of RRIRYRPPRLPRPRPRPLIRPRP, the “shrunken log2 fold change” value was -0.85.

As for RRIRIRPPRLPRPRPRPIYFPRP, the “shrunken log2 fold change” value is -0.233.

As to RRIRRRPPRLPRPRPRPCTFPRP, the “shrunken log2 fold change” value is -0.262.

Consider RRIRFRPPRLPRPRPRPVGGPRP, for which the “shrunken log2 fold change” value turned out to be 0.405.

RRIRGRPPRLPRPRPRPSCIPRP: the “shrunken log2 fold change” value is 0.423.

Turning to RRIRCRPPRLPRPRPRPPFEPRP, the “shrunken log2 fold change” value worked out at 0.136.

As for RRIRERPPRLPRPRPRPFDCPRP, the “shrunken log2 fold change” value was -0.0657.

As for RRIRQRPPRLPRPRPRPQMIPRP, the “shrunken log2 fold change” value is -0.0977.

Consider RRIRIRPPRLPRPRPRPLEGPRP, for which the “shrunken log2 fold change” value is -0.0524.

On to RRIRARPPRLPRPRPRPKFHPRP, for which the “shrunken log2 fold change” value is 0.133.

Turning to RRIRYRPPRLPRPRPRPFHLPRP, the “shrunken log2 fold change” value was -0.532.

Regarding RRIRIRPPRLPRPRPRPGQFPRP, the “shrunken log2 fold change” value is -0.0255.

As for RRIRYRPPRLPRPRPRPHDQPRP, the “shrunken log2 fold change” value was -0.188.

As for RRIRARPPRLPRPRPRPTNYPRP, the “shrunken log2 fold change” value is -0.137.

As for RRIRERPPRLPRPRPRPCQIPRP, the “shrunken log2 fold change” value was -0.193.

For RRIRERPPRLPRPRPRPKSKPRP, the “shrunken log2 fold change” value was -0.19.

Regarding RRIRLRPPRLPRPRPRPIWNPRP, the “shrunken log2 fold change” value was determined as 0.0155.

With RRIRKRPPRLPRPRPRPMTHPRP, the “shrunken log2 fold change” value is -0.00695.

As for RRIRPRPPRLPRPRPRPGHFPRP, the “shrunken log2 fold change” value is 0.0437.

Regarding RRIRLRPPRLPRPRPRPYFFPRP, the “shrunken log2 fold change” value is -0.45.

For RRIRPRPPRLPRPRPRPHQNPRP, the “shrunken log2 fold change” value was -0.124.

On to RRIRGRPPRLPRPRPRPCPMPRP, for which the “shrunken log2 fold change” value stood at 1.17.

With RRIRVRPPRLPRPRPRPCTTPRP, the “shrunken log2 fold change” value is 0.167.

As to RRIRMRPPRLPRPRPRPTYTPRP, the “shrunken log2 fold change” value was -0.173.

Regarding RRIRYRPPRLPRPRPRPAERPRP, the “shrunken log2 fold change” value is 0.0541.

For RRIRIRPPRLPRPRPRPACLPRP, the “shrunken log2 fold change” value was -0.228.

For the sequence RRIRRRPPRLPRPRPRPTECPRP, the “shrunken log2 fold change” value turned out to be 0.0801.

As for RRIRNRPPRLPRPRPRPIRIPRP, the “shrunken log2 fold change” value was found to be 0.0229.

In the case of RRIRQRPPRLPRPRPRPMAAPRP, the “shrunken log2 fold change” value turned out to be 0.127.

In the case of RRIRHRPPRLPRPRPRPQDGPRP, the “shrunken log2 fold change” value was -0.0342.

As for RRIRTRPPRLPRPRPRPKATPRP, the “shrunken log2 fold change” value was -0.146.

Take RRIRMRPPRLPRPRPRPEITPRP: the “shrunken log2 fold change” value was determined as 3.07.

RRIRARPPRLPRPRPRPHSNPRP: the “shrunken log2 fold change” value was -0.251.

Regarding RRIRWRPPRLPRPRPRPLYSPRP, the “shrunken log2 fold change” value was -0.247.

For RRIRTRPPRLPRPRPRPNYDPRP, the “shrunken log2 fold change” value is -0.493.

On to RRIRFRPPRLPRPRPRPGQRPRP, for which the “shrunken log2 fold change” value was 0.686.

Take RRIRWRPPRLPRPRPRPYIQPRP: the “shrunken log2 fold change” value is -1.07.

Regarding RRIRGRPPRLPRPRPRPCTQPRP, the “shrunken log2 fold change” value stood at 0.196.

Turning to RRIRYRPPRLPRPRPRPLGAPRP, the “shrunken log2 fold change” value is -0.103.

Take RRIRKRPPRLPRPRPRPAGAPRP: the “shrunken log2 fold change” value came out at 0.698.

In the case of RRIRHRPPRLPRPRPRPWLKPRP, the “shrunken log2 fold change” value was -0.185.

On to RRIRARPPRLPRPRPRPGSCPRP, for which the “shrunken log2 fold change” value is 0.32.

RRIRSRPPRLPRPRPRPKFIPRP: the “shrunken log2 fold change” value was -0.482.

RRIRIRPPRLPRPRPRPFACPRP: the “shrunken log2 fold change” value was -0.0925.

Consider RRIRTRPPRLPRPRPRPMGCPRP, for which the “shrunken log2 fold change” value was -0.145.

For the sequence RRIRCRPPRLPRPRPRPLGPPRP, the “shrunken log2 fold change” value stood at 0.106.

Turning to RRIRPRPPRLPRPRPRPWPNPRP, the “shrunken log2 fold change” value was -0.0364.

As to RRIRTRPPRLPRPRPRPYDHPRP, the “shrunken log2 fold change” value was -0.097.

As to RRIRLRPPRLPRPRPRPHAQPRP, the “shrunken log2 fold change” value was 0.133.

Take RRIRARPPRLPRPRPRPFIQPRP: the “shrunken log2 fold change” value came to 0.0556.

For the sequence RRIRSRPPRLPRPRPRPTYPPRP, the “shrunken log2 fold change” value was -0.0945.

Consider RRIRQRPPRLPRPRPRPVQLPRP, for which the “shrunken log2 fold change” value came out at 0.163.

On to RRIRKRPPRLPRPRPRPLNFPRP, for which the “shrunken log2 fold change” value is 0.103.

Take RRIRDRPPRLPRPRPRPQKIPRP: the “shrunken log2 fold change” value was found to be 0.0171.

Turning to RRIRERPPRLPRPRPRPDQGPRP, the “shrunken log2 fold change” value is 0.0476.

RRIRCRPPRLPRPRPRPIQCPRP: the “shrunken log2 fold change” value was -0.14.

Consider RRIRERPPRLPRPRPRPKWHPRP, for which the “shrunken log2 fold change” value is -0.136.

Consider RRIRTRPPRLPRPRPRPSLQPRP, for which the “shrunken log2 fold change” value was -0.0953.

For the sequence RRIRFRPPRLPRPRPRPPRIPRP, the “shrunken log2 fold change” value is 0.232.

Turning to RRIRCRPPRLPRPRPRPAIVPRP, the “shrunken log2 fold change” value was -0.37.

RRIRTRPPRLPRPRPRPIQEPRP: the “shrunken log2 fold change” value was 0.0124.

Turning to RRIRMRPPRLPRPRPRPRGGPRP, the “shrunken log2 fold change” value is 1.26.

For RRIRWRPPRLPRPRPRPWFFPRP, the “shrunken log2 fold change” value was -0.0638.

As for RRIRHRPPRLPRPRPRPMYLPRP, the “shrunken log2 fold change” value is -0.412.

Take RRIRQRPPRLPRPRPRPGDTPRP: the “shrunken log2 fold change” value was -0.223.

Consider RRIRRRPPRLPRPRPRPINPPRP, for which the “shrunken log2 fold change” value was 0.00585.

For RRIRYRPPRLPRPRPRPQLMPRP, the “shrunken log2 fold change” value is -0.509.

In the case of RRIRARPPRLPRPRPRPNEIPRP, the “shrunken log2 fold change” value was -0.179.

For RRIRSRPPRLPRPRPRPIEHPRP, the “shrunken log2 fold change” value is -0.0344.

In the case of RRIRVRPPRLPRPRPRPWVPPRP, the “shrunken log2 fold change” value was -0.101.

For the sequence RRIRYRPPRLPRPRPRPSNEPRP, the “shrunken log2 fold change” value was -0.474.

As for RRIRHRPPRLPRPRPRPMVIPRP, the “shrunken log2 fold change” value is -0.0264.

On to RRIRGRPPRLPRPRPRPNLNPRP, for which the “shrunken log2 fold change” value stood at 0.0742.

Turning to RRIRNRPPRLPRPRPRPKSPPRP, the “shrunken log2 fold change” value was 0.205.

Regarding RRIRKRPPRLPRPRPRPAWAPRP, the “shrunken log2 fold change” value amounted to 0.577.

RRIRTRPPRLPRPRPRPETMPRP: the “shrunken log2 fold change” value came out at 0.338.

With RRIRDRPPRLPRPRPRPHRMPRP, the “shrunken log2 fold change” value was determined as 0.0707.

Regarding RRIRYRPPRLPRPRPRPCIDPRP, the “shrunken log2 fold change” value was -0.00448.

As to RRIRARPPRLPRPRPRPIQEPRP, the “shrunken log2 fold change” value stood at 0.116.

Regarding RRIRNRPPRLPRPRPRPPLWPRP, the “shrunken log2 fold change” value came to 0.539.

For RRIRPRPPRLPRPRPRPCPDPRP, the “shrunken log2 fold change” value is 0.0391.

Regarding RRIRRRPPRLPRPRPRPIPFPRP, the “shrunken log2 fold change” value was -0.175.

As to RRIRCRPPRLPRPRPRPKVYPRP, the “shrunken log2 fold change” value is -0.167.

Take RRIRWRPPRLPRPRPRPEFFPRP: the “shrunken log2 fold change” value was 0.54.

On to RRIRRRPPRLPRPRPRPINHPRP, for which the “shrunken log2 fold change” value is -0.273.

In the case of RRIRCRPPRLPRPRPRPAKNPRP, the “shrunken log2 fold change” value amounted to 0.00465.

Regarding RRIRPRPPRLPRPRPRPLYKPRP, the “shrunken log2 fold change” value was -0.247.

On to RRIRCRPPRLPRPRPRPKEDPRP, for which the “shrunken log2 fold change” value came to 0.166.

As to RRIRMRPPRLPRPRPRPAMPPRP, the “shrunken log2 fold change” value worked out at 0.548.

Take RRIRQRPPRLPRPRPRPACIPRP: the “shrunken log2 fold change” value was -0.165.

For RRIRQRPPRLPRPRPRPEQLPRP, the “shrunken log2 fold change” value was -0.0643.

Consider RRIRQRPPRLPRPRPRPFMCPRP, for which the “shrunken log2 fold change” value was -0.371.

In the case of RRIRWRPPRLPRPRPRPCCWPRP, the “shrunken log2 fold change” value came to 0.438.

On to RRIRLRPPRLPRPRPRPNYSPRP, for which the “shrunken log2 fold change” value was -0.718.

Consider RRIRIRPPRLPRPRPRPILMPRP, for which the “shrunken log2 fold change” value was -0.23.

For RRIRNRPPRLPRPRPRPHWGPRP, the “shrunken log2 fold change” value was -0.0266.

For RRIRDRPPRLPRPRPRPQDNPRP, the “shrunken log2 fold change” value is -0.0684.

For RRIRLRPPRLPRPRPRPKDAPRP, the “shrunken log2 fold change” value is -0.11.

With RRIRHRPPRLPRPRPRPVIDPRP, the “shrunken log2 fold change” value is -0.395.

Take RRIRPRPPRLPRPRPRPYQMPRP: the “shrunken log2 fold change” value was -0.722.

As for RRIRRRPPRLPRPRPRPYRVPRP, the “shrunken log2 fold change” value is -0.0172.

As to RRIRPRPPRLPRPRPRPHGFPRP, the “shrunken log2 fold change” value is -0.21.

As for RRIRMRPPRLPRPRPRPWCWPRP, the “shrunken log2 fold change” value worked out at 0.366.

For RRIRYRPPRLPRPRPRPWTPPRP, the “shrunken log2 fold change” value was -0.0576.

Take RRIRYRPPRLPRPRPRPRTIPRP: the “shrunken log2 fold change” value was -0.228.

(Values after the supplement of paper PMC9112550, “Optimization of the antimicrobial peptide Bac7 by deep mutational scanning” (BMC Biology, 2022).)
